Target: T1, HscA (UniProt P0A6Z1 1-616)
T1 sequence (looked up): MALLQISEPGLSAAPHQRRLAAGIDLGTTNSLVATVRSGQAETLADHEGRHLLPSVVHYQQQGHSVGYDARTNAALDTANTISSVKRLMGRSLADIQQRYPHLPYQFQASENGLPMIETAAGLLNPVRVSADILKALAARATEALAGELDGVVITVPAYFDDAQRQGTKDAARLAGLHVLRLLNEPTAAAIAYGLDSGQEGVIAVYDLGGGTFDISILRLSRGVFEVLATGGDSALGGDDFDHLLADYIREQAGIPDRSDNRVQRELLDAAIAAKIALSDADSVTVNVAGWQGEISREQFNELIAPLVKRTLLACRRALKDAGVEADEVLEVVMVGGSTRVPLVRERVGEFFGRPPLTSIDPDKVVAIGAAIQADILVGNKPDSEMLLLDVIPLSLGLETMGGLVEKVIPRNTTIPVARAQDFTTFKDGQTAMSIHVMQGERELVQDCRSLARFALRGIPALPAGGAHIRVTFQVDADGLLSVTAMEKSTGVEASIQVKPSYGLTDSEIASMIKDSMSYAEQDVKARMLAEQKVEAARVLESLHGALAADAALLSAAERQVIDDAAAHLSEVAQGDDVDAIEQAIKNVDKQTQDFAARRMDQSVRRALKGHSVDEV
Assay: cell-based or functional assay

B1: HscB (wild type) (natural protein, E. coli, UniProt P0A6L9 1-171, looked up)
chain: MDYFTLFGLPARYQLDTQALSLRFQDLQRQYHPDKFASGSQAEQLAAVQQSATINQAWQTLRHPLMRAEYLLSLHGFDLASEQHTVRDTAFLMEQLELREELDEIEQAKDEARLESFIKRVKKMFDTRHQLMVEQLDNETWDAAADTVRKLRFLDKLRSSAEQLEEKLLDF
HscA ATPase activity, 23 °C, in the absence of IscU: maximal stimulation: 4.4 fold

From paper PMC2627783 (Biochemistry, 2008)
